We go through three substances from paper PMC11634027.

The target in test [1] is Ds-TM-ICD-ΔD-II:V5 (Drosophila). Description: co-IP; S2 cells co-transfected; lysed in RIPA buffer; V5-tagged Ds construct precipitated with V5-Trap magnetic agarose beads, 1 h; blots with anti-V5 and anti-FLAG (Figs 4E, 5G, 6D,F, 8K).
For test [2], the target named is Ds-TM-ICD-ΔD-III:V5 (Drosophila). The test is described as above.
The target is the same in test [3]. As to the kind of experiment: co-IP; S2 cells co-transfected; lysed in RIPA buffer; results in supplementary figures (S6-S9) or without a figure; which beads (V5-Trap or Fab-Trap) is not told in what was shown.
For test [4], the target named is Ds-TM-ICD-ΔD-II:V5 (Drosophila). The description is as above.

Regarding “FLAG:Lft (Lowfat) (from UniProt Q9VKY1 1-268) (natural protein)”, the co-precipitation relative to Ds-ICD full length in test [1] is 15%.
On to “MyoID:FLAG (from UniProt Q23978 1-1011) (natural protein)”, for which the figures for the co-precipitation relative to control (Ds-ICD:V5) in test [2] and in test [1] were 40% and 57%, respectively.
On to “Sple-N:FLAG (from UniProt A1Z6W3 1-349) (domain or fragment)”, for which the co-precipitation relative to Ds-ICD full length in test [3] stood at 35%; in test [4], 30%.
